Measurements from patent publication US20050244864A1, “Development and use of fluorescent probes of unbound analytes” (priority 2004, published 2005).

Experiments:
[1] = Probe calibration: binding affinities for fatty acids
Procedure: In a preferred embodiment, the template FABP is recombinant rat intestinal fatty acid binding protein (rI-FABP). Derivatization with acrylodan is performed using known methods substantially as previously described (U.S. Pat. No. 5,470,714 & Richieri, G. V, et al., J. Biol. Chem., (1992) 276: 23495-23501), and the resulting probe (ADIFAB) is commercially available (FFA Sciences LLC, San Diego, Calif.). […] The wavelength emitted by the fluorescently-labeled FABP depends upon the label and protein used. In an alternate preferred embodiment, the template protein is rI-FABP that has Ala substituted for Leu at position 72 (rI-FABP-L72A) with the resulting probe named ADIFAB2. […] Experiments typically involve measuring the fluorescence response within both emission maxima or at wavelengths for which the effect of interfering molecules such as hemoglobin can be eliminated as described in (U.S. application Ser. No. 10/670,958 and PCT/US2004/030521) and the calculation of the ratio ‘R’ of the two fluorescence intensities. The baseline value for this ratio, measured in the absence of analyte, is designated R0.
For each probe considered to have a useful phenotype, the sequence is determined, milligram quantities of the probe are prepared and the probe is calibrated. […] Spectra of probes were analyzed for true ratio behavior. […]

[2] = Screening of FFA-insensitive probes for response to UCB:BSA complexes (ΔI/Io); type: binding; conditions: fractional change in fluorescence intensity
Procedure: A probe for unbound unconjugated bilirubin (UCBu) was developed and used to measure concentrations of UCBu in plasma spiked with a defined quantity of unconjugated bilirubin (UCB). Using 384-well plates, 335 mutant probes that were insensitive to FFA were screened for their response to UCB:BSA complexes at UCB:BSA ratios of 1:1 and 1:2 in aqueous buffer. All probes were prepared from rI-FABP-L72A with 1 to 5 mutations. Screening was conducted by comparing the fractional change in fluorescence intensity (ΔI/Io, where ΔI is the difference in probe intensity in the presence and absence of UCB and Io is the intensity in the absence of UCB) for the probes with that for ADIFAB2. This value was calculated for two emission wavelengths: 440 and 500 nm. […] The emitted fluorescence of these probes is quenched by binding of UCB.

- binding affinities relative to ADIFAB [1]: about 10 fold
B1: ADIFAB2: rI-FABP with Ala substituted for Leu at position 72 (rI-FABP-L72A), derivatized with acrylodan; reference probe (protein, UniProt P02693 2-132, looked up, variant L72A)
Fatty acid-binding protein, …: AFDGTWKVDRNENYEKFMEKMGINVVKRKLGAHDNLKLTITQEGNKFTVKESSNFRNIDVVFELGVDFAYSAADGTELTGTWTMEGNKLVGKFKRVDNGKELIAVREISGNELIQTYTYEGVEAKRIFKKE
modifications: acrylodan label
- ΔI/Io 1:1 UCB:BSA 440 nm ([2]; UCB:BSA 1:1, emission 440 nm): −0.40
- ΔI/Io 1:1 UCB:BSA 500 nm ([2]; UCB:BSA 1:1, emission 500 nm): −0.34
- ΔI/Io 1:2 UCB:BSA 440 nm ([2]; UCB:BSA 1:2, emission 440 nm): −0.19
- ΔI/Io 1:2 UCB:BSA 500 nm ([2]; UCB:BSA 1:2, emission 500 nm): −0.16
